Earlier results in patent US8536129B2, “Treatment for anxiety” (NoNO Inc., priority 2007, dated 2013).

Target: N-type calcium channels (Homo sapiens, UniProt Q00975)
Settings: reported in co-pending application 60/904,507

Chain of N-type calcium channels (Q00975 whole entry): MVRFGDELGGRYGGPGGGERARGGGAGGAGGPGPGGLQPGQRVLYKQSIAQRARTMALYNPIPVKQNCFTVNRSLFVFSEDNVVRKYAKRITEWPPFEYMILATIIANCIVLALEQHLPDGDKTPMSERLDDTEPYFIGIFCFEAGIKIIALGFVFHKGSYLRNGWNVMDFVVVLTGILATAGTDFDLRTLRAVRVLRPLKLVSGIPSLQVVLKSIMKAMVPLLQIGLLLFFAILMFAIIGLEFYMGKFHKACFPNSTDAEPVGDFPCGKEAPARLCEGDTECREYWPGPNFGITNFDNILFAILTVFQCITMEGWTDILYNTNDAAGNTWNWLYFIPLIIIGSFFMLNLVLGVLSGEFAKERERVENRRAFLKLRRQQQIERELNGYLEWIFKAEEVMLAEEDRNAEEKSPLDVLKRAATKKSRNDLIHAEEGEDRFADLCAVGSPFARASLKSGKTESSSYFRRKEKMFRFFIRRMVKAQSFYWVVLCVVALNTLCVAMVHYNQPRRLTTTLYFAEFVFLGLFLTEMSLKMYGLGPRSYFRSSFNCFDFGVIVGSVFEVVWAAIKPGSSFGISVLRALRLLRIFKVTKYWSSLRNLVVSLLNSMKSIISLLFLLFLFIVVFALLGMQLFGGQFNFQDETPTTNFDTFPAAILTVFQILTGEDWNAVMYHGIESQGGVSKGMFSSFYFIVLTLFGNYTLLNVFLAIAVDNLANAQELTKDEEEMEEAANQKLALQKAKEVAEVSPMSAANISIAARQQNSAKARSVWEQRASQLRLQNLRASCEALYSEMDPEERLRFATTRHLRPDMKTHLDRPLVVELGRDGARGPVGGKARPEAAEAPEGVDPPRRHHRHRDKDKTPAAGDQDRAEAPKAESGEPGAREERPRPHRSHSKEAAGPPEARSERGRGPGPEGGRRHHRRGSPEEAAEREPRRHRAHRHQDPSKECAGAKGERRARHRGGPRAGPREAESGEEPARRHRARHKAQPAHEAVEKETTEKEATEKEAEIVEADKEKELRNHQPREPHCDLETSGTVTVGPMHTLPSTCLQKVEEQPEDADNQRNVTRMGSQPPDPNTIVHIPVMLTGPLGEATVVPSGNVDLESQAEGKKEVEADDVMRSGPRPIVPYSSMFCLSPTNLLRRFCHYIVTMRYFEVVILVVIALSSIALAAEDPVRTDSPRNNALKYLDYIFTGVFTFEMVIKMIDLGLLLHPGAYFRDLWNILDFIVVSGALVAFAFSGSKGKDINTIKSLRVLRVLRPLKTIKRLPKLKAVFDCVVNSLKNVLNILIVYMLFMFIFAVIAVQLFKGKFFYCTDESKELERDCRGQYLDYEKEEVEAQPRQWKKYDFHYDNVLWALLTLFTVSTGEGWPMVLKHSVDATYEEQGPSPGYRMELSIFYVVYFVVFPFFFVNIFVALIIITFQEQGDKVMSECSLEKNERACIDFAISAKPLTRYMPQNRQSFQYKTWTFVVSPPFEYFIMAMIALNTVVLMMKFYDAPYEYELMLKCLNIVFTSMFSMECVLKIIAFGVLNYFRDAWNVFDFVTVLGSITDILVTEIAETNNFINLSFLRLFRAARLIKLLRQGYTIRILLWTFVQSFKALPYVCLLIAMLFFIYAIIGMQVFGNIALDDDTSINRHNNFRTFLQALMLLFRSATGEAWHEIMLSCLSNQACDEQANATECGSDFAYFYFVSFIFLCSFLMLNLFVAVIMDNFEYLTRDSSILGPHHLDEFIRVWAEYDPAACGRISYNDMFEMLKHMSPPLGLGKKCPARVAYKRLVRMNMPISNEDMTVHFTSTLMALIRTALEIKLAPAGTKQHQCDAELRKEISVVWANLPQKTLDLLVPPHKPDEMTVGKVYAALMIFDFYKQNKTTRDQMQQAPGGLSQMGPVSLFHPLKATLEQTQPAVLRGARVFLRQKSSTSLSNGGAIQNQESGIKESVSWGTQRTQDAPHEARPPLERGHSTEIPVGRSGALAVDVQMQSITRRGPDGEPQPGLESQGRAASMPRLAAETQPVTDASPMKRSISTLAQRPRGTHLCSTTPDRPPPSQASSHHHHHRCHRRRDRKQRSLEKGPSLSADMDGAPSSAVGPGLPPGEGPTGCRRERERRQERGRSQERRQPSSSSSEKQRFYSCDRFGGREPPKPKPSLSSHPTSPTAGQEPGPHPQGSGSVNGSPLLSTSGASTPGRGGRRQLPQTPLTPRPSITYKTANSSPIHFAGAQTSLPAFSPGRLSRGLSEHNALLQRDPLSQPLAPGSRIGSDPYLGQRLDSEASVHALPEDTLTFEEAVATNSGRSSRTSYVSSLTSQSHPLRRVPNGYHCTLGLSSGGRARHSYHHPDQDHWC

## YGRKKRRQRRR [standard tat peptide]
  binding to and inhibition of N-type calcium channels: binds to and inhibits N-type calcium channels
